Test results published in PMC9671860.

How the values were obtained:
[1] = target: Enterococcus faecalis FabN dehydratase/isomerase, hexahistidine-tagged (Enterococcus faecalis (strain FA2-2)); experiment: SEC
[2] = target: Enterococcus faecalis FabO 3-ketoacyl-ACP synthase I, hexahistidine-tagged (Enterococcus faecalis (strain FA2-2)); experiment: SEC

| Substance | stoichiometry N [1] | stoichiometry N [2] |
| --- | --- | --- |
| Enterococcus faecalis FabN dehydratase/isomerase, hexahistidine-tagged (enzyme) | 6 | – |
| Enterococcus faecalis FabO 3-ketoacyl-ACP synthase I, hexahistidine-tagged (enzyme) | – | 2 |
